Article PMC6238601, “Specificity for deubiquitination of monoubiquitinated FANCD2 is driven by the N-terminus of USP1” (Life Science Alliance, 2018)

What was measured:
Details in all cases: both partners purified
[1] = molecular target: T1, UAF1 (USP1-associated factor 1) (human, UniProt Q8TAF3 1-677); assay: SEC; USP1 and UAF1 alone or together at 15 μM, 15 min on ice; SD200 Increase (10/300); 20 mM Tris pH 8.0, 150 mM NaCl, 5% glycerol, 5 mM DTT; fractions on SDS-PAGE, Coomassie
T1 construct: UAF1 (USP1-associated factor 1), human; N-terminal His-3C tag; the methods say tags were removed except from FANCD2, FANCI, USP2 and GST-ubiquitin; source: Sf21 (baculovirus), purified (Ni-NTA, anion exchange, SEC); not shown: His, N-terminal, cleaved

[2] = molecular target: T2, human FANCD2 (hsFANCD2), non-ubiquitinated (human, UniProt Q9BXW9 1-1451); assay: pull-down; N-terminal Strep-tagged UAF1 complexed with E. coli USP1, 10 μg bound to MagStrep beads and washed; 10 μg recombinant substrate, 1 h on ice; 50 mM Tris pH 7.5, 120 mM NaCl, 5% glycerol, 1 mM DTT, 0.01% Triton X-100, 0.01% ovalbumin; SDS-PAGE; beads without USP1–UAF1 as control
T2 construct: FANCD2 (Fanconi anemia group D2 protein), human, full length; gene synthesised and optimised for Spodoptera frugiperda; His-3C tag; tags were not removed from FANCD2; also called Fanconi anemia group D2 protein; source: Sf21 (baculovirus), purified (Ni-NTA, anion exchange, SEC)

[3] = molecular target: T3, human PCNA-K164Ub (hsPCNA-Ub) (human | , UniProt P12004 1-261; P0CG48 1-76, K164 monoubiquitinated (isopeptide bond to ubiquitin) | C-terminus linked to K164 of PCNA); assay: as above
T3 construct: PCNA, human; ubiquitin; Covalent conjugate; also called monoubiquitinated PCNA

B1: USP1^ΔNΔ1Δ2 (Δ1–54, Δ229–408, Δ608–737), Sf21-expressed (domain or fragment, human, UniProt O94782 55-785, looked up)
chain: SEIDQVVPAAQSSPINCEKRENLLPFVGLNNLGNTCYLNSILQVLYFCPGFKSGVKHLFNIISRKKEALKDEANQKDKGNCKEDSLASYELICSLQSLIISVEQLQASFLLNPEKYTDELATQPRRLLNTLRELNPMYEGYLQHDAQEVLQCILGNIQETCQLLKKEEVKNVAENEVKPINKGEEQIGFELVEKLFQGQLVLRTRCLECESLTERREDFQDISVPVQEDELSKVEESSEISPEPKTEMKTLRWAISQFASVERIVGEDKYFCENCHHYTEAERSLLFDKMPEVITIHLKCFAASGLEFDCYGGGLSKINTPLLTPLKLSLEEWSTKPTNDSYGLFAVVMHSGITISSGHYTASVKVTDLNSLEQSLKEYEGKWLLFDDSEVKVTEEKDFLNSLSPSTSPTSTPYLLFYKKL
notes: USP1, human; N-terminus (Δ1–54), Insertion 1 (Δ229–408) and Insertion 2 (Δ608–737) deleted in the full-length background; the G670A/G671A site lies in the deleted Insertion 2; also called minimal USP1 catalytic domain; catalytic domain of USP1; source: Sf21 (baculovirus), purified (Ni-NTA, anion exchange, SEC)
B1: binds [1].

B2: USP1^Δ1Δ2-R22K–UAF1 complex (Strep-tagged UAF1) (complex)
chain 1: MPGVIPSESNGLSRGSPSKKNKLSLKFFQKKETKRALDFTDSQENEEKASEYRASEIDQVVPAAQSSPINCEKRENLLPFVGLNNLGNTCYLNSILQVLYFCPGFKSGVKHLFNIISRKKEALKDEANQKDKGNCKEDSLASYELICSLQSLIISVEQLQASFLLNPEKYTDELATQPRRLLNTLRELNPMYEGYLQHDAQEVLQCILGNIQETCQLLKKEEVKNVAENEVKPINKGEEQIGFELVEKLFQGQLVLRTRCLECESLTERREDFQDISVPVQEDELSKVEESSEISPEPKTEMKTLRWAISQFASVERIVGEDKYFCENCHHYTEAERSLLFDKMPEVITIHLKCFAASGLEFDCYGGGLSKINTPLLTPLKLSLEEWSTKPTNDSYGLFAVVMHSGITISSGHYTASVKVTDLNSLEQSLKEYEGKWLLFDDSEVKVTEEKDFLNSLSPSTSPTSTPYLLFYKKL
chain 2: not shown
notes: USP1, human; Δ229–408, Δ608–737, R22K; as m11; UAF1, human; as m7; source: E. coli USP1^Δ1Δ2-R22K complexed with Sf21 Strep-UAF1, both purified; not shown: Strep11, N-terminal, kept
B2: binds [2].

B3: USP1^Δ1Δ2-L25A–UAF1 complex (Strep-tagged UAF1) (complex)
chain 1: MPGVIPSESNGLSRGSPSKKNRLSAKFFQKKETKRALDFTDSQENEEKASEYRASEIDQVVPAAQSSPINCEKRENLLPFVGLNNLGNTCYLNSILQVLYFCPGFKSGVKHLFNIISRKKEALKDEANQKDKGNCKEDSLASYELICSLQSLIISVEQLQASFLLNPEKYTDELATQPRRLLNTLRELNPMYEGYLQHDAQEVLQCILGNIQETCQLLKKEEVKNVAENEVKPINKGEEQIGFELVEKLFQGQLVLRTRCLECESLTERREDFQDISVPVQEDELSKVEESSEISPEPKTEMKTLRWAISQFASVERIVGEDKYFCENCHHYTEAERSLLFDKMPEVITIHLKCFAASGLEFDCYGGGLSKINTPLLTPLKLSLEEWSTKPTNDSYGLFAVVMHSGITISSGHYTASVKVTDLNSLEQSLKEYEGKWLLFDDSEVKVTEEKDFLNSLSPSTSPTSTPYLLFYKKL
chain 2: not shown
notes: USP1, human; Δ229–408, Δ608–737, L25A; as m12; UAF1, human; as m7; source: E. coli USP1^Δ1Δ2-L25A complexed with Sf21 Strep-UAF1, both purified; not shown: Strep11, N-terminal, kept
B3: binds [2].

B4: USP1^Δ1Δ2–UAF1 complex (Strep-tagged UAF1) (complex)
chain 1: MPGVIPSESNGLSRGSPSKKNRLSLKFFQKKETKRALDFTDSQENEEKASEYRASEIDQVVPAAQSSPINCEKRENLLPFVGLNNLGNTCYLNSILQVLYFCPGFKSGVKHLFNIISRKKEALKDEANQKDKGNCKEDSLASYELICSLQSLIISVEQLQASFLLNPEKYTDELATQPRRLLNTLRELNPMYEGYLQHDAQEVLQCILGNIQETCQLLKKEEVKNVAENEVKPINKGEEQIGFELVEKLFQGQLVLRTRCLECESLTERREDFQDISVPVQEDELSKVEESSEISPEPKTEMKTLRWAISQFASVERIVGEDKYFCENCHHYTEAERSLLFDKMPEVITIHLKCFAASGLEFDCYGGGLSKINTPLLTPLKLSLEEWSTKPTNDSYGLFAVVMHSGITISSGHYTASVKVTDLNSLEQSLKEYEGKWLLFDDSEVKVTEEKDFLNSLSPSTSPTSTPYLLFYKKL
chain 2: not shown
notes: USP1, human; Δ229–408, Δ608–737; as m8; UAF1, human; as m7; Bait complex formed beforehand and held on MagStrep beads; also called UAF1–USP1; USP1–UAF1; source: E. coli USP1^Δ1Δ2 complexed with Sf21 Strep-UAF1, both purified; not shown: Strep11, N-terminal, kept
B4: binds [3].

B5: USP1^ΔNΔ1Δ2–UAF1 complex (Strep-tagged UAF1) (complex)
chain 1: SEIDQVVPAAQSSPINCEKRENLLPFVGLNNLGNTCYLNSILQVLYFCPGFKSGVKHLFNIISRKKEALKDEANQKDKGNCKEDSLASYELICSLQSLIISVEQLQASFLLNPEKYTDELATQPRRLLNTLRELNPMYEGYLQHDAQEVLQCILGNIQETCQLLKKEEVKNVAENEVKPINKGEEQIGFELVEKLFQGQLVLRTRCLECESLTERREDFQDISVPVQEDELSKVEESSEISPEPKTEMKTLRWAISQFASVERIVGEDKYFCENCHHYTEAERSLLFDKMPEVITIHLKCFAASGLEFDCYGGGLSKINTPLLTPLKLSLEEWSTKPTNDSYGLFAVVMHSGITISSGHYTASVKVTDLNSLEQSLKEYEGKWLLFDDSEVKVTEEKDFLNSLSPSTSPTSTPYLLFYKKL
chain 2: not shown
notes: USP1, human; Δ1–54, Δ229–408, Δ608–737; as m9; UAF1, human; as m7; Bait complex formed beforehand and held on MagStrep beads; source: E. coli USP1^ΔNΔ1Δ2 complexed with Sf21 Strep-UAF1, both purified; not shown: Strep11, N-terminal, kept
B5: binds [3].
